Laboratory results: PMC5170556 (Molecular Biology of the Cell, 2016)

What was measured:
Bim1 (full-length) = molecular target: T1, Bim1 (full-length) (S. cerevisiae, UniProt P40013 1-344); assay: SEC-MALS
T1 sequence (looked up): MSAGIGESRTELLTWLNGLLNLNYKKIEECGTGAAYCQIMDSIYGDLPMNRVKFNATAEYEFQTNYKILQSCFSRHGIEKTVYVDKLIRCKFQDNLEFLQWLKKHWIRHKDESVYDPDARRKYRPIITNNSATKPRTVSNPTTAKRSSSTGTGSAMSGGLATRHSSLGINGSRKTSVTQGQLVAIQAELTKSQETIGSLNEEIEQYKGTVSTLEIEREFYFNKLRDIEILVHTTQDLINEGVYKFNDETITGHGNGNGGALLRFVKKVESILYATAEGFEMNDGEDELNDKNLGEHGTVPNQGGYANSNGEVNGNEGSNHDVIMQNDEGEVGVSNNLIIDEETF

[1] = molecular target: T2, C-terminally green fluorescent protein–tagged Bim1 (S. cerevisiae, UniProt P40013 1-344); assay: AUC
T2 sequence (looked up): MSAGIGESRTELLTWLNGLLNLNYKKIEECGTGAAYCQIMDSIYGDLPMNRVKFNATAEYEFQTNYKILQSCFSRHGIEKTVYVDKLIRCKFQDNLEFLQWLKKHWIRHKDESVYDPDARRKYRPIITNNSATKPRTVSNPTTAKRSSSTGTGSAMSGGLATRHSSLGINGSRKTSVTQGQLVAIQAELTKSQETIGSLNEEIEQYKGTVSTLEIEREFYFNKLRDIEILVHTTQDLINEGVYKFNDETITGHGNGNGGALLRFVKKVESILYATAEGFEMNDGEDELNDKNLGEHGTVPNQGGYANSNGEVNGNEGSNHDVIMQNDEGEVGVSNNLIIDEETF

stoichiometry N (Bim1 (full-length)): 1 Kar9 monomer per Bim1 dimer
stoichiometry N [1]: 1 Kar9 monomer per Bim1 dimer
B1: Kar9 (full-length) (natural protein, S. cerevisiae, UniProt P32526 1-644, looked up)
chain: MDNDGPRSMTIGDDFQENFCERLERIHNTLHSINDCNSLNESTTSISETLLVQFYDDLENVASVIPDLVNKKRLGKDDILLFMDWLLLKKYMLYQFISDVHNIEEGFAHLLDLLEDEFSKDDQDSDKYNRFSPMFDVIEESTQIKTQLEPWLTNLKELLDTSLEFNEISKDHMDTLHKIINSNISYCLEIQEERFASPIRHTPSFTLEQLVKLLGTHTETTEPKVPKFSPAEDILSRKFLNLKKNIPPIEKSLTDILPQRIVQFGHRNITNITTLQTILQKKYELIMKDYRFMNSEFRELKVELIDKRWNILFINLNHELLYILDEIERLQSKLLTTKYTKDITIRLERQLERKSKTVSKTFNIIYRALEFSLLDAGVASKTNELAQRWLNIKPTADKILIKSSASNKIATSKKKIPKPKSLGFGRPNSVIGTITQDFQERVAINEGDSNKTPENSTTVALKGKKLGKALLQKMNIKPATSPNSSNAINPFFDPESPNKGKLILSSVPPLPYDETDETTLRVSRGENEKSPDSFITSRHENKVQITETPLMAKNKSVLDIEKDKWNHYRSLPSRIPIYKDKVVKVTVENTPIAKVFQTPPTKITTPNSQVWVPSTRRRTRLRPPTPLSQLLSPREGRLDKTPTY
